The values that follow come from patent EP4680727A2 (dated 2026).

The target of one assay is T1, murine CD19 (mouse, UniProt P25918 19-547).
T1 sequence: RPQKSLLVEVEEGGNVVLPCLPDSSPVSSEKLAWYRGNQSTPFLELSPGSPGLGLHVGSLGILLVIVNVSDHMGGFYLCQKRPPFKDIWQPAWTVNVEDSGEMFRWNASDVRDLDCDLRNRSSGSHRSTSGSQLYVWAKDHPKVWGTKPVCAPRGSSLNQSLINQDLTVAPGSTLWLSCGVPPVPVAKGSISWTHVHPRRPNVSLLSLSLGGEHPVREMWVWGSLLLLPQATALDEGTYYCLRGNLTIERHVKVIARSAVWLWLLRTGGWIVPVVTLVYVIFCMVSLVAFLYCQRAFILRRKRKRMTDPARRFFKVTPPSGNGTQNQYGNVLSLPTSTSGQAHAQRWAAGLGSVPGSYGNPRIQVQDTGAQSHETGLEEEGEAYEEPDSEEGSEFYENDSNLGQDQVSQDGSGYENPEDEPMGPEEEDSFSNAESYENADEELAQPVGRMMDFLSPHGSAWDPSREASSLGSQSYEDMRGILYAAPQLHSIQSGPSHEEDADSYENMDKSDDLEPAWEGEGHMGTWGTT
In words: cell-based or functional assay.

Assay [1] has as its target T2, Ad5FDgT fiber (Human Adenovirus 5 fiber with DogTag inserted at the HI loop domain of the fiber knob) (Human Adenovirus 5).
T2 chain: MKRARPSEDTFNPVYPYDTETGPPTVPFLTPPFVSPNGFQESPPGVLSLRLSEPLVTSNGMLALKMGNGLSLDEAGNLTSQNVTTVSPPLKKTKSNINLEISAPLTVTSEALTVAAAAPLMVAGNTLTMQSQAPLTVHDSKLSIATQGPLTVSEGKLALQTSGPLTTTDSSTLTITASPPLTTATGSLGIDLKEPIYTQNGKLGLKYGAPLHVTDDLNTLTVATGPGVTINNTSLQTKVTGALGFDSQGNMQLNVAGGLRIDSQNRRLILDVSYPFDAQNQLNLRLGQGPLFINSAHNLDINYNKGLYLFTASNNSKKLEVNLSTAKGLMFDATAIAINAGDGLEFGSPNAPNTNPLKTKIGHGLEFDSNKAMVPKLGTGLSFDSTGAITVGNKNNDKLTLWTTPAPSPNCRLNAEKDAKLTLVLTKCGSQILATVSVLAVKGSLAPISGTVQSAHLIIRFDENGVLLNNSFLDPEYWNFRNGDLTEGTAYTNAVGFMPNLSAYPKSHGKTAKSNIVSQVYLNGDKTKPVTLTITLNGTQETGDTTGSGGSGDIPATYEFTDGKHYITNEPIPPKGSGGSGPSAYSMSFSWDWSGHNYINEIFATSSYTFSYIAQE
In words: covalent DogCatcher/DogTag conjugation to the virus capsid.

In assay [2] the target is T2, Ad5FDgT fiber (Human Adenovirus 5 fiber …). In words: SDS-PAGE gel shift of the fiber band after co-incubation at room temperature. (In general: Mobility shift assays separate free from complexed probe on a gel.)
For assay [3] the target is unchanged. In words: SDS-PAGE (complete shift of the fiber-DogTag band) and western blot against the fiber tail, purified Ad-Ab complexes. For orientation: A western blot detects proteins with antibodies after separation by electrophoresis.
The target of assay [4] is T3, murine CD8a (mouse, UniProt P01731 28-247). In words: cell-based or functional assay.
T3 sequence (P01731 28-247): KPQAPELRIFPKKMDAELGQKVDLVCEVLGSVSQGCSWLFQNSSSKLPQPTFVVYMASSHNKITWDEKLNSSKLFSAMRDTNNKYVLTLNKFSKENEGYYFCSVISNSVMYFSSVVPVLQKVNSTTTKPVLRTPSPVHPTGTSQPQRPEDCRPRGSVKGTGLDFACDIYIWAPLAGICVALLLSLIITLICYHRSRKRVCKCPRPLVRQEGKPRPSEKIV
The target of assay [5] is T3, murine CD8a. In words: flow cytometry on murine splenocytes, gated on CD8+, detected with anti-His Tag antibody. On the technique in general: Flow cytometry measures light scatter and fluorescence of single cells or particles in a stream.

B1: 1D3DgC (1D3 anti-murine CD19 scFv fused to DogCatcher; IL-2 signal sequence-1D3 scFv-(G4S)3-DgC-6xHis) (scFv)
scFv: DIQMTQSPASLSTSLGETVTIQCQASEDIYSGLAWYQQKPGKSPQLLIYGASDLQDGVPSRFSGSGSGTQYSLKITSMQTEDEGVYFCQQGLTYPRTFGGGTKLELKGGGGSGGGGSGGGGSEVQLQQSGAELVRPGTSVKLSCKVSGDTITFYYMHFVKQRPGQGLEWIGRIDPEDESTKYSEKFKNKATLTADTSSNTAYLKLSSLTSEDTATYFCIYGGYYFDYWGQGVMVTVSSGGGGSGGGGSGGGGSAMKLGEIEFIKVDKTDKKPLRGAVFSLQKQHPDYPDIYGAIDQNGTYQDVRTGEDGKLTFTNLSDGKYRLIENSEPPGYKPVQNKPIVSFRIVDGEVRDVTSIVPQGSSGSHHHHHH
notes: also called lD3DgC; 1D3 scFv-DogCatcher
For the molecule B1, the “gene expression in B cells in vivo, against the parent vector” value with murine CD19 is approximately 2 fold. For the same molecule, in assay [1], the binding result is “binds”.

B2: 18B12DgC (18B12 anti-murine CD20 scFv fused to DogCatcher; IL-2 signal sequence-18B12 scFV-(G4S)3-DgC-6xHis) (scFv)
scFv: QVQLQQPGAELVRPGTSVKLSCKASGYTFTSYWMHWIKQRPGQGLEWIGVIDPSDNYTKYNQKFKGKATLTVDTSSSTAYMQLSSLTSEDSAVYFCAREGYYGSSPWFAYWGQGTLVTVSSGGGGSGGGGSGGGGSQIVMSQSPAILSASPGEKVTMTCRARSSVSYIHWYQQKPGSSPKPWIYATSNLASGVPGRFSGSGSGTSYSLTITRVEAEDAATYYCQQWSSKPPTFGGGTKLEIKGGGGSGGGGSGGGGSAMKLGEIEFIKVDKTDKKPLRGAVFSLQKQHPDYPDIYGAIDQNGTYQDVRTGEDGKLTFTNLSDGKYRLIENSEPPGYKPVQNKPIVSFRIVDGEVRDVTSIVPQGSSGSHHHHHH
notes: also called 18B12 scFv-DogCatcher
Take B2: the binding result in assay [1] is listed as “binds”.

B3: DogCatcher (bacterially produced, 6xHis-TEV-DogCatcher) (other)
chain: MSYYHHHHHHDYDIPTTENLYFQGAMKLGEIEFIKVDKTDKKPLRGAVFSLQKQHPDYPDIYGAIDQNGTYQDVRTGEDGKLTFTNLSDGKYRLIENSEPPGYKPVQNKPIVSFRIVDGEVRDVTSIVPQ
notes: also called DgC; pDEST14-DogCatcher product
As to B3, the binding result in assay [2] is “binds”.

B4: YTS169DgC (YTS169 anti-murine CD8a scFv fused to DogCatcher; IGHV1-46 signal sequence-YTS169 scFv-(G4S)3-DgC-6xHis) (scFv)
scFv: EVKLQESGGGLVQPGRSLKLSCAASGFNFNDYWMGWVRQAPGKGLEWIGEINKDSSTINYTPSLKDKFTISRDNAQNTLYLQMSKLGSEDTAIYYCARARGMMVLIIPHYFDYWGQGVMVTVSSGGGGSGGGGSGGGGSDIVLTQSPAMAMSPGERITISCRASESVSTRMHWYQQKPGQQPKLLIYGASNLESGVPARFSGSGSGTDFTLTIDPVEANDTATYFCQQSWYDPWTFGGGTKLELKGGGGSGGGGSGGGGSAMKLGEIEFIKVDKTDKKPLRGAVFSLQKQHPDYPDIYGAIDQNGTYQDVRTGEDGKLTFTNLSDGKYRLIENSEPPGYKPVQNKPIVSFRIVDGEVRDVTSIVPQGSSGSHHHHHH
notes: also called YTS169 scFv-DogCatcher; anti-mCD8 YTS169
As to B4, the binding result in assay [3] was “binds”. The “gene expression in CD8a+ T cells in vivo” value with murine CD8a [4] was approximately 2 fold.

B5: FMC63 scFv-DogCatcher fusion (anti-human CD19; IL-2 signal sequence-FMC63 scFv-(G4S)3-DgC-6xHis) (scFv)
scFv: DIQMTQTTSSLSASLGDRVTISCRASQDISKYLNWYQQKPDGTVKLLIYHTSRLHSGVPSRFSGSGSGTDYSLTISNLEQEDIATYFCQQGNTLPYTFGGGTKLEITGGGGSGGGGSGGGGSEVKLQESGPGLVAPSQSLSVTCTVSGVSLPDYGVSWIRQPPRKGLEWLGVIWGSETTYYNSALKSRLTIIKDNSKSQVFLKMNSLQTDDTAIYYCAKHYYYGGSYAMDYWGQGTSVTVSSGGGGSGGGGSGGGGSAMKLGEIEFIKVDKTDKKPLRGAVFSLQKQHPDYPDIYGAIDQNGTYQDVRTGEDGKLTFTNLSDGKYRLIENSEPPGYKPVQNKPIVSFRIVDGEVRDVTSIVPQGSSGSHHHHHH
notes: also called FMC163DgC (plasmid name as printed)
For the molecule B5, the binding result in assay [1] is “binds”.

B6: 2.43DgC (2.43 scFv fused to DogCatcher; IGHV1-46 signal sequence-2.43 scFv-(G4S)3-DgC-6xHis) (scFv)
scFv: EVQLVESGGGLVQPGRSLKLSCAASGFTFSNYYMAWVRQAPTKGLEWVAYINTGGGTTYYRDSVKGRFTISRDDAKSTLYLQMDSLRSEDTATYYCTTAIGYYFDYWGQGVMVTVSSGGGGSGGGGSGGGGSDIQLTQSPASLSASLGETVSIECLASEDIYSYLAWYQQKPGKSPQVLIYAANRLQDGVPSRFSGSGSGTQYSLKISGMQPEDEGDYFCLQGSKFPYTFGAGTKLELKGGGGSGGGGSGGGGSAMKLGEIEFIKVDKTDKKPLRGAVFSLQKQHPDYPDIYGAIDQNGTYQDVRTGEDGKLTFTNLSDGKYRLIENSEPPGYKPVQNKPIVSFRIVDGEVRDVTSIVPQGSSGSHHHHHH
notes: also called 2.43 scFv-DogCatcher
On to B6, for which the binding result with murine CD8a [5] is “binds”.
